{
  "source": "patent US20060246520A1",
  "about": "“Gamma delta t cell-mediated therapy” (INSTITUT NATIONAL DE LA SANTE ET DE LA RECHERCHE MEDICALE, priority 2003, published 2006)",
  "key": {"K562 cells": {"tested_on": "K562 cells", "assay": "PE-labelled TCR tetramer staining of serum-depleted K562 cells incubated with apolipoproteins or competing mAb", "assay_type": "cell-based, human", "details": "serum-depleted K562, apolipoprotein preparations 100 μg/ml", "experimental": "FIG. 3: Vγ9Vδ2 TCR binding to tumor cells and apoA-I. PE-labeled tetrameric TCRs from clone G115 and clone 73R9 were used to stain tumor cell lines and assess the influence of apolipoproteins on their tumor recognition. Shaded histograms: concentration-matched streptavidin-PE alone. Line histograms: binding of the indicated PE-labelled tetrameric TCR. (a) Cell lines were cultured in 10% fcs before staining with tetramers. (b) K562 cells were serum-depleted, incubated with 10% human serum or the indicated apolipoprotein preparations (100 μg/ml) and stained with G115 or 73R9 TCR tetramers. (c) Serum-depleted K562 cells were incubated with 100 μg/ml of HDL hApoA-I (left histogram) or hM5L (right histogram) and labeled with G115 TCR tetramers in the presence of the indicated competing mAb (20 μg/ml). […] Data are representative of three experiments.\nImmunofluorescence stainings were performed in PBS containing 1% BSA and devoid of serum using FITC-conjugated goat F(ab)′2 anti-mouse Ig antibody (Caltag) as the second step reagent. Irrelevant isotype-matched control antibodies were used as negative controls. In apolipoprotein binding experiments, serum-deprived cells were incubated with serum or purified protein preparations in PBS containing 1% BSA, at room temperature, 30 minutes prior to antibody staining. 7H10 (anti-α-ATP synthase) and 3D5 (anti-β-ATP synthase) and 7F9 (anti-γ-ATP synthase) are from Molecular Probes. 4H1 (anti-human apoA-I) (Collet et al., 1997) was obtained from Dr Y. Marcel (Ottawa).\nThe G115 (Vγ9Vδ2) (3) and 73R9 (Vγ8Vδ3) extracellular γ and δ chains (the latter carrying a short 3′ Biotin tag) were expressed in Escherichia coli, then refolded together by rapid dilution in 1 L of 1 M L-arginine, 0.1 M Tris-HCl, pH 8.0 and 0.2 mM reduced/0.2 mM oxidized glutathione. After dialysis against 10 mM Tris-HCl pH 8.0, concentration by cation exchange chromatography at pH 5.5, and purification by size exclusion chromatography at pH 8.0, the refolded protein was biotinylated for 4 h at 30° C. with 6 μg/ml BirA and excess of free biotin was removed by dialysis against 10 mM Tris-HCl pH 8.0, 150 mM NaCl. Tetramers of γδ TCR heterodimers were obtained by mixing the biotinylated TCR with phycoerythrin-labeled streptavidin (Biosource) at a molar ratio of 10:1. For staining, 2.10^5 cells were incubated at room temperature for 45 min with phycoerythrin-labeled γδ TCR tetramers at a concentration of TCR of 30 μg/ml in PBS plus 1% BSA. Background staining was determined using phycoerytlrin-labeled streptavidin at the same concentration."}, "Raji cells": {"tested_on": "Raji cells", "assay": "125I-labelled free apoA-I binding assay on Raji cells", "parameters": "species or system human", "details": "2 hours at 4° C.", "experimental": "(§1) (e): ^125I-labelled free apoA-I binding was measured after 2 hours incubation at 4° C. on Daudi and Raji cells. Top and bottom panels: binding isotherm of ^125I-labeled free apoA-I to Daudi (top) and Raji (bottom) cells. (◯): total binding, (σ): non-specific binding; (●): specific binding. Middle panel: Scatchard representation of specific binding on Daudi cells.\n(§2) The binding experiments were performed at 4° C. for 2 hours as previously described (Barbaras et al., 1994). Briefly, cells (9 μg of cell proteins per point) were incubated in PBS for 2 hours at 4° C. with increasing concentrations of labeled apoA-I. Cells were filtered on 0.22 μm filters (GVWP Millipore-France) and washed four times with 1% BSA in PBS. Filters were used for radioactivity measurements. Non-specific binding was determined in the presence of a 100-fold excess (as compared to the KD value) of the corresponding unlabeled ligand. Binding was analyzed using a weighted non-linear curve-fitting program, based on the LIGAND analysis program (Prism-GraphPad)."}, "immobilized Vγ9Vδ2TCR": {"tested_on": "immobilized Vγ9Vδ2TCR", "assay": "SPR: purified apolipoprotein binding to immobilized Vγ9Vδ2TCR", "parameters": "species or system human", "details": "soluble proteins injected at 100 μg/ml; immobilized TCR 335 RU", "excerpt": "FIG. 7. Surface plasmon resonance analysis. Soluble proteins were exposed to the sensorchip surface for 240 s (association phase) followed by a 240-s flow running (dissociation phase). Immobilized proteins were on sensorchips flowcell 2. Sensorgrams are representative of specific interactions (differential response) where non-specific binding that occurred on flow cell 1 (with no protein immobilized) was deduced from binding that occurred on flow cell 2. Results are expressed as resonance units (RU) as a function of time in seconds.\n(c) Comparative sensorgrams of purified apoA-I (full line) and apoA-II (dotted line) binding to immobilized Vγ9Vδ2TCR (proteins were injected at 100 μg/ml). Amount of immobilized TCRγδ protein was 335 RU on flow cell 2.\nApoA-I and ATP synthase (F1 subunit) were immobilized by amine linkage on CM5 chips (Biacore AB) following NHS-EDC activation; Vγ9Vδ2-biotinylated soluble TCRs were immobilized on SA streptavidin-coated chips (Biacore AB) and binding was analyzed in a Biacore 3000 apparatus (BiacoreAB). Soluble ligands were injected at a flow rate of 20 μl/min, exposed to the surface for 240 s (association phase) followed by a 240-s flow running during which the dissociation occurred. […] Results are expressed as resonance units (RU) as a function of time in seconds."}, "Daudi cells [1]": {"tested_on": "Daudi cells", "assay": "125I-labelled free apoA-I binding assay on Daudi cells (Scatchard)", "parameters": "species or system human", "details": "2 hours at 4° C.; single binding receptor; read-out: KD of binding to Daudi cells (Scatchard analysis)", "experimental": "as §1, §2"}, "Vγ9Vδ2 T cells": {"tested_on": "Vγ9Vδ2 T cells", "assay": "TNFα secretion by T cell clones stimulated with protein-coated latex beads", "assay_type": "cell-based, human", "details": "serum-free (sfm)", "excerpt": "FIG. 6: Induction of Vγ9Vδ2 T cell lymphokine secretion by immobilized ATP-synthase. HDL-derived apoA-I and ATP synthase were immobilized on latex beads and these were used to stimulate T cell populations. none: no stimulation; empty: beads saturated with BSA; apoA-I: beads coated with apoA-I only. AS: beads coated with the F1 extra-membrane subunit of bovine ATP synthase. AS/apoA-I: beads coated with both protein preparations.\n[…] The capacity of γδ clones G25, G115, 73R9 to secrete significant amounts of TNFα upon stimulation was checked by using Daudi cells as target cells as well as PMA/ionomycin or PHA. The αβ clone A4.19 secretes saturating quantities of TNFα upon PMA/ionomycin or PHA stimulation (not shown). […]\n2 h- ^51Cr-release assays were performed in standard conditions except for the use of serum-free conditions in some experiments: in sensitization experiments with apolipoprotein preparations, target tumor cells were serum-deprived as described for facs analysis, loaded with ^51Cr (100 μCi/10^6 cells, 1 hour, 37° C.), extensively washed in RPMI and resuspended in sfm medium. […] Specific lysis was calculated as the percentage of maximum release. […] IFNγ was titrated by a specific Elisa technique, whereas TNFα concentration was assessed by a biological assay based on WEHI cells viability. […]"}, "[2]": {"target": "single binding receptor for apoA-I on Daudi cells", "assay": "Scatchard analysis of 125I-labelled free apoA-I binding to Daudi cells, 2 h at 4° C."}, "[3]": {"target": "human lipid-free apoA-I prepared from high density lipoprotein particles (HDL-apoA-I) (human) (UniProt P02647)", "sequence (P02647 25-267 limits assumed)": "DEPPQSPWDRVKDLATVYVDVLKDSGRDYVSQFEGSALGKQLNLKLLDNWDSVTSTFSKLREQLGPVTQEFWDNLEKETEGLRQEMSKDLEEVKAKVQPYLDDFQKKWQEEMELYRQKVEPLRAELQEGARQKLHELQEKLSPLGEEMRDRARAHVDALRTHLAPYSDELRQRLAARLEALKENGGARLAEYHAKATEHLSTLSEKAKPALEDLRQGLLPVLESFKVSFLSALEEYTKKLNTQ", "assay": "SPR (Biacore 3000), apoA-I immobilized (2260 RU), TCR injected at 125 nM to 2 µM"}, "[4]": {"target": "purified bovine ATP synthase (F1 subunit) (bovine) (UniProt P19483)", "assay": "SPR (Biacore 3000), ATP synthase (F1) immobilized (22440 RU), TCR injected at 0.5 to 4 µM"}, "Daudi cells [5]": {"tested_on": "Daudi cells", "assay": "51Cr release assay of Daudi cytolysis by effector T cell clones in serum-free medium", "assay_type": "cell-based, human", "details": "serum-depleted targets", "experimental": "FIG. 2: ApoA-I-dependent activation of Vγ9Vδ2 T cells. ^51Cr release assays were performed in serum-free medium (sfm) to assess dependance on serum and apoA-I of Daudi cytolysis by different effector T cell populations. G25 and G42: Vγ9Vδ2 T cell clones, 73R9: Vγ8Vδ3 T cell clone. M5L (bovine serum component immunopurified with M5 antibody) was tested at the indicated concentration for its ability to substitute for serum (fcs). Recombinant annexin V was used as a control purified protein.\n2 h- ^51Cr-release assays were performed in standard conditions except for the use of serum-free conditions in some experiments: in sensitization experiments with apolipoprotein preparations, target tumor cells were serum-deprived as described for facs analysis, loaded with ^51Cr (100 μCi/10^6 cells, 1 hour, 37° C.), extensively washed in RPMI and resuspended in sfm medium. Effector T cells cultivated in serum-containing medium were washed extensively in RPMI, incubated for 2 hours in sfm at 37° C. and resuspended in sfm medium. […] Specific lysis was calculated as the percentage of maximum release. […] IFNγ was titrated by a specific Elisa technique, whereas TNFα concentration was assessed by a biological assay based on WEHI cells viability."}},
  "data": [
    {"molecule": "apoA-II: purified apolipoprotein A-II, control of hydrophobicity similar to that of apoA-I [reference compound]", "values": [
      {"measurement": "effect on Vγ9Vδ2 TCR tetramer binding to K562", "setting": "K562 cells", "result": "did not enhance"}
    ]},
    {"molecule": "apolipoprotein A-I [apoA-I]", "values": [
      {"measurement": "specific binding on Raji cells", "setting": "Raji cells", "result": "absence of specific binding"},
      {"measurement": "interaction with immobilized G115 TCR", "setting": "immobilized Vγ9Vδ2TCR", "result": "specifically interacted"},
      {"measurement": "Kd", "setting": "Daudi cells [1]", "result": 80, "unit": "nM"},
      {"measurement": "effect on Vγ9Vδ2 TCR tetramer binding to K562", "setting": "K562 cells", "result": "increased"},
      {"measurement": "effect on binding of Vγ8Vδ3 TCR tetramers to K562", "setting": "K562 cells", "result": "neither serum, nor apoA-I, affected the binding"},
      {"measurement": "stimulatory activity on Vγ9Vδ2 T cells in serum-free conditions", "setting": "Vγ9Vδ2 T cells", "result": "relatively minor increase"}
    ]},
    {"molecule": "hM5L: human serum ligand of M5 mAb, immunopurified; identity to apoA-I confirmed", "values": [
      {"measurement": "effect on Vγ9Vδ2 TCR tetramer binding to K562", "setting": "K562 cells", "result": "increased"}
    ]},
    {"molecule": "human lipid-free apoA-I prepared from high density lipoprotein particles (HDL-apoA-I) (from UniProt P02647 25-267) (ligand)", "values": [
      {"measurement": "Kd", "setting": "[2]", "result": 80, "unit": "nM"}
    ]},
    {"molecule": "soluble monomeric G115 TCR (Vγ9Vδ2)", "values": [
      {"measurement": "Kd", "setting": "[3]", "result": 810, "unit": "nM"},
      {"measurement": "koff", "setting": "[3]", "result": 0.00713, "unit": "s⁻¹"},
      {"measurement": "kon", "setting": "[3]", "result": 8800, "unit": "M⁻¹ s⁻¹"},
      {"measurement": "Kd", "setting": "[4]", "result": 1510, "unit": "nM"},
      {"measurement": "koff", "setting": "[4]", "result": 0.00254, "unit": "s⁻¹"},
      {"measurement": "kon", "setting": "[4]", "result": 1680, "unit": "M⁻¹ s⁻¹"}
    ]},
    {"molecule": "M5L: bovine serum component immunopurified with M5 antibody, ~28 kDa, identified as apolipoprotein A-I (protein, UniProt P15497 25-265, looked up) Apolipoprotein A-I: DDPQSSWDRVKDFATVYVEAIKDSGRDYVAQFEASALGKQLNLKLLDNWDTLASTLSKVREQLGPVTQEFWDNLEKETASLRQEMHKDLEEVKQKVQPYLDEFQKKWHEEVEIYRQKVAPLGEEFREGARQKVQELQDKLSPLAQELRDRARAHVETLRQQLAPYSDDLRQRLTARLEALKEGGGSLAEYHAKASEQLKALGEKAKPVLEDLRQGLLPVLESLKVSILAAIDEASKKLNAQ", "values": [
      {"measurement": "effect on Daudi cell lysis by control Vγ8Vδ3 T cell clone (#73R9)", "setting": "Daudi cells [5]", "result": "neither affected by serum deprivation nor by addition of M5L"},
      {"measurement": "effect on Vγ9Vδ2 T cell-mediated lysis of Daudi cells", "setting": "Daudi cells [5]; Vγ9Vδ2 clones G25, G42", "result": "increased Vγ9Vδ2 T cell-mediated lysis in a dose-dependent manner"}
    ]}
  ]
}
